Reference: patent publication US20260043004A1 (IMMPACT BIO, published 2026)

Molecular target: T1, anti-CD19/CD20 CAR having the amino acid sequence of SEQ ID NO: 2 (construct CC314)
T1 construct: Chimeric antigen receptor on the surface of transduced T cells: Leu16 scFv (VL-VH), (G4S)4, FMC63 scFv (VH-VL), IgG4 spacer, CD28 TM, 4-1BB, CD3 zeta; also called CD19/20 CAR; CD 19/20 CAR
Experiment: flow cytometry staining of T cells (donor 1917) transduced with CD19/20 CAR lentiviral vector

T1 sequence (chain, as listed by the source): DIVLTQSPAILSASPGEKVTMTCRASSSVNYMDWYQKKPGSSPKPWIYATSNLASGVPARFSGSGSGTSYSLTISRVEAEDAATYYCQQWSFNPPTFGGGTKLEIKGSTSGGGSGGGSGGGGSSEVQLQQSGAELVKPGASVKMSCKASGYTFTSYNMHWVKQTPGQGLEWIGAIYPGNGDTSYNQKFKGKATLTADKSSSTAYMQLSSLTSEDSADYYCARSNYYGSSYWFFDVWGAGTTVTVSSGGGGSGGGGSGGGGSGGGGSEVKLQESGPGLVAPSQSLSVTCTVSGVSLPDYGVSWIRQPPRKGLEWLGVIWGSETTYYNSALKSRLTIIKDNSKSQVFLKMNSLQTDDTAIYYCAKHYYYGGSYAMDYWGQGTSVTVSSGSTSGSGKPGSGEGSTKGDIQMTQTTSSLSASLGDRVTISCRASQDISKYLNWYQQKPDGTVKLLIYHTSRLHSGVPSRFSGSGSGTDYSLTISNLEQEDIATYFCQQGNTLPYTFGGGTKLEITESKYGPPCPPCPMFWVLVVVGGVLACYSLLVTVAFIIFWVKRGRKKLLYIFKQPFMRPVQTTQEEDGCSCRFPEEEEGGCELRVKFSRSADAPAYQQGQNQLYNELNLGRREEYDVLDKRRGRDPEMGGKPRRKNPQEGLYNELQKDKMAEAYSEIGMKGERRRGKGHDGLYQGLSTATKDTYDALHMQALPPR

B1: CD20 Protein-Biotin (Acros) (other, UniProt P11836 1-297, looked up)
chain: MTTPRNSVNGTFPAEPMKGPIAMQSGPKPLFRRMSSLVGPTQSFFMRESKTLGAVQIMNGLFHIALGGLLMIPAGIYAPICVTVWYPLWGGIMYIISGSLLAATEKNSRKCLVKGKMIMNSLSLFAAISGMILSIMDILNIKISHFLKMESLNFIRAHTPYINIYNCEPANPSEKNSPSTQYCYSIQSLFLGILSVMLIFAFFQELVIAGIVENEWKRTCSRPKSNIVLLSAEEKKEQTIEIKEEVVGLTETSSQPKNEEDIEIIPIQEEEEEETETNFPEPPQDQESSPIENDSSP
modifications: biotin (site not stated)
notes: Bought detection reagent
  % Positive Cells: 68.1%
